Values quoted from earlier work, collected in publication PMC8625919.
Values joined by “and” are separate entries in the source; they are usually repeats but may differ in a detail not shown here. Equal values may be shown once. Values belong to the substance of their own block, whether it stands above or below them.

Columns and labels:
[1] = biological target: Neuropilin-1 (Homo sapiens) (UniProt O14786); assay: ELISA type assay with AP-VEGF164
[2] = biological target: VEGFR-2D2-3 D2-3 (Homo sapiens) (UniProt P35968); assay: ITC
[3] = biological target: VEGFR-2D2-3 D2-3 (Homo sapiens) (UniProt P35968); assay: SPR
VEGFR-2 (Homo sapiens) = VEGFR-2 (Homo sapiens) (UniProt P35968)
[4] = biological target: VEGFR-1D1-3 D1-3 (Homo sapiens) (UniProt P17948); assay: ITC
[5] = biological target: VEGFR-1D1-7 D1-7 (Homo sapiens) (UniProt P17948); assay: ITC
[6] = biological target: VEGFR-3 D1-3 (Homo sapiens) (UniProt P35916)
[7] = biological target: VEGFR-3 D1-2 (Homo sapiens) (UniProt P35916)
[8] = biological target: VEGFR-3 D1-5 (Homo sapiens) (UniProt P35916)
[9] = biological target: VEGFR-3D1-2 D1-2 (Homo sapiens) (UniProt P35916); assay: ITC
[10] = biological target: VEGFR-3D1-3 D1-3 (Homo sapiens) (UniProt P35916); assay: ITC
[11] = biological target: VEGFR-3D1-5 D1-5 (Homo sapiens) (UniProt P35916); assay: ITC

Chain of UniProt O14786 (O14786 22-923): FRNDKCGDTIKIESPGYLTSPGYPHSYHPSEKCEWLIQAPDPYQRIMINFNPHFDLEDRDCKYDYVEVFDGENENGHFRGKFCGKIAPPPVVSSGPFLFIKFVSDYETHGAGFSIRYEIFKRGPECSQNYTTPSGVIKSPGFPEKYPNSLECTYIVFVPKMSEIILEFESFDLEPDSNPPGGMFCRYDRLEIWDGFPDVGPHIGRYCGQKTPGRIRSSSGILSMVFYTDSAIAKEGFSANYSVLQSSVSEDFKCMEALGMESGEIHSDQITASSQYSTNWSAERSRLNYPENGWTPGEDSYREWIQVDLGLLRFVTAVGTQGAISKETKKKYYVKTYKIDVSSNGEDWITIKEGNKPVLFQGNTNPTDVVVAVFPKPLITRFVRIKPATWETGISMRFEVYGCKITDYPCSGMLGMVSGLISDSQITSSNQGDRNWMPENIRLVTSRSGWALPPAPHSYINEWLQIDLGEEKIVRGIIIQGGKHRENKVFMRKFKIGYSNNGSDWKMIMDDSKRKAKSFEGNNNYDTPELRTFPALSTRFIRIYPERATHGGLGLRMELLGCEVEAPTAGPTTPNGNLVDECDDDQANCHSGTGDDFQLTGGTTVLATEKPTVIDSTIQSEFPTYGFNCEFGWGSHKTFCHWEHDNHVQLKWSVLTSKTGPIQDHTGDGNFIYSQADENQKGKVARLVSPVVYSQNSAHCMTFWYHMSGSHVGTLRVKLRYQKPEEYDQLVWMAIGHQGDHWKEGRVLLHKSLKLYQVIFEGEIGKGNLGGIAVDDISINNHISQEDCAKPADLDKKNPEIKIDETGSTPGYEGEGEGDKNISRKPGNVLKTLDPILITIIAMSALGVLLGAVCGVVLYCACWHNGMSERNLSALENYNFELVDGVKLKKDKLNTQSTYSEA

- Kd [1]: 3 nM
Substance: VEGF164 (from UniProt Q00731)

- Kd [2]: 170 nM and 18 nM
- Kd [3]: 36.7 nM
Substance: VEGF165 (from UniProt P15692)

- Kd (VEGFR-2 (Homo sapiens)): 0.113 nM
- Kd [4]: 47 nM
- Kd [5]: 1.7 nM
Substance: VEGF-A (from UniProt P15692)

- Kd [6]: 140 nM
- Kd [7]: 250 nM
- Kd [8]: 3.7 nM
- Kd [2]: 16 nM
- Kd [9]: 250 nM
- Kd [10]: 140 nM
- Kd [11]: 3.7 nM
- Kd [3]: 18.2 nM
Substance: VEGF-C (from UniProt P49767)
